This note sets out measurements from article PMC5290487.

For assay [1], the target named is MK2 (mitogen-activated protein kinase-activated protein kinase 2), endogenous in COS-1 cells. In words: co-immunoprecipitation (IP of endogenous MK2, western blot for PDE4A5), quantified. The following applies: COS-1 cell lysates; parent: est. 100; read off a plot.
For assay [2] the target is unchanged. Described as above. The following applies: COS-1 cell lysates; parent: est. 100; read off a plot. This is another data set of the same source.

As to “PDE4A5 (long PDE4A isoform), wild type (from UniProt P54748-1) W664A; Y665A; H666A; S667A”, the percent of parent (% binding of MK2 in Wt IP) in assay [1] turned out to be 80. On the same count and under the same terms, to “PDE4A5 (long PDE4A isoform), wild type (from UniProt P54748-1) I654A; L655A; D656A” belongs 88. Turning to “PDE4A5 (long PDE4A isoform), wild type (from UniProt P54748-1) Y143A”, the percent of parent (% binding of MK2 in Wt IP) in assay [2] came out at 79. In the case of “PDE4A5 (long PDE4A isoform), wild type (from UniProt P54748-1) F141A; L142A; Y143A”, the percent of parent (% binding of MK2 in Wt IP) stood at 2 in assay [1] and 1.5 in assay [2]. Turning to “PDE4A5 (long PDE4A isoform), wild type (from UniProt P54748-1) F693A; Q694A; F695A”, the percent of parent (% binding of MK2 in Wt IP) in assay [1] came to 63. In the case of “PDE4A5 (long PDE4A isoform), wild type (from UniProt P54748-1) L142A”, the percent of parent (% binding of MK2 in Wt IP) in assay [2] amounted to 73. On to “PDE4A5 (long PDE4A isoform), wild type (from UniProt P54748-1) T698A; L699A; E700A; E701A”, for which the percent of parent (% binding of MK2 in Wt IP) in assay [1] came out at 67.

For the substance “PDE4A5 (long PDE4A isoform), wild type (from UniProt P54748-1) F141A”, the percent of parent (% binding of MK2 in Wt IP) in assay [2] is 58.
